The values that follow come from patent publication US20230052312A1 (Genentech, published 2023).

For assay [1], the target named is T1, human PD-L1 (human, UniProt Q9NZQ7 19-290).
T1 construct: whole, on cells; Endogenous PD-L1 on cells of human donors and patients; also called programmed death ligand 1
Kind of assay: flow cytometry on human blood cells (conclusion of Example 1). (In flow cytometry, cells or beads pass a laser one at a time.)

Assay [2] addresses T1, human PD-L1. Kind of assay: flow cytometry on stimulated human whole blood, with or without Atezolizumab. How it is done:
A Live Dead Kit (Invitrogen) was brought to room temperature. The kit included a near-IR fluorescent reactive dye and DMSO. 1× Pharm Lyse was made by mixing 10 mL of 10× Pharm Lyse (BD Biosciences) in 90 mL distilled water. After surface staining the cells in the test tubes, the tubes were vortexed and 3 mL of 1× Pharm Lyse was added to each test tube. The test tubes were vortexed again to enhance lysis of the cells in the presence of Pharm Lyse. The test tubes were then incubated for 15 minutes at room temperature in the dark. Following incubation, the test tubes were centrifuged for 5 minutes at 300 RCF/1500 to 1600 RPM. After centrifugation, the supernatant was aspirated as much as possible without disturbing the cell pellet. The bottom of each test tube was then flicked to break the cell pellet before washing the cells in 3 mL phosphate-buffered saline (PBS). The test tubes were centrifuged once more for 5 minutes at 300 RCF/1500 to 1600 RPM. The supernatant was then aspirated as before without disturbing the cell pellet. The bottom of each test tube was flicked to break the cell pellet and 1 mL of PBS was added to each test tube. A test tube was selected to perform a cell count using the BioRad TC20 cell counter. If the cell count was above 2 million live cells per mL of PBS in the tube, the concentration was adjusted to be 1 million live cells per mL and diluted accordingly using PBS. […]

T1 sequence (Q9NZQ7 19-290): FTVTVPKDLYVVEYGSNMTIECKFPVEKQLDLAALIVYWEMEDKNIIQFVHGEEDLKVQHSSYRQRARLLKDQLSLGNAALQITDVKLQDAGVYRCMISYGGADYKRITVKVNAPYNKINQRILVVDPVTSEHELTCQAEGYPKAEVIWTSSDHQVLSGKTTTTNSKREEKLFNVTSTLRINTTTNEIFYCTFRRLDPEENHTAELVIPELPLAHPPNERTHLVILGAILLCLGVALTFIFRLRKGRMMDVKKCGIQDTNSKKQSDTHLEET

B1: anti-PD-L1 14D3 antibody (antibody, V domains shown)
VH: QVQLQQSGPELVNPGASVKISCKASGYAFSTSWMNWVKQRPGKGLEWIGRIYPRDGDTYYNGKFKDKATLTADKSSNTAYMQLSSLTSEDSAVYFCTKNPGGYYFDYWGQGTTLTVSS
VL: DIQMTQTTSSLSASLGDRVTINCRASQDIHTYLNWYQQKPDGTVKLLIFYTSRLHSGVPSRFSGSGSGTDYSLTISNLEQEDIATYFCQQVSSLPPWTFGGGTKVEIK
notes: also called clone 14D3; PD-L1 GNE
In the case of B1, in the assay with human PD-L1 [1], the binding result is recorded as “binds”.

B2: anti-PD-L1 AF647 14D3 (antibody, V domains shown)
VH: B1 VH
VL: B1 VL
notes: also called anti-PD-L1 14D3 antibody labeled with AF647
On to B2, for which the binding result with human PD-L1 [2] is “binds”.

B3: anti-PD-L1 PE 14D3 (antibody, V domains shown)
VH: B1 VH
VL: B1 VL
notes: also called anti-PD-L1 14D3 antibody labeled with PE
For B3, in the assay with human PD-L1 [2], the binding result is listed as “binds”.
